Source: patent publication US20220073643A1 (NANJING GENSCRIPT BIOTECH, published 2022)
Where a chain is given by its changes, count along the chain named. Like-named read-outs stand apart in the source and are kept apart here. Each block holds one binder with its values, some of them ahead of it.

Columns and labels:
human Claudin18.2 [1] = target: human Claudin18.2 (human); experiment: cell-based or functional assay
human Claudin18.2 [2] = target: human Claudin18.2 (human); experiment: cell-based or functional assay; remark: listed apart in the source
human Claudin18.2 [3] = target: T1, human Claudin18.2 (human); experiment: FACS, Claudin18.2-HEK293 cells
T1 construct: also called CLDN18.2
Procedure: (§1) The binding of chimeric antibodies to Claudin18.2 expressed on HEK293 cells was determine by FACS analysis. Briefly, HEK293 cells expressing human Claudin18.2 as prepared in the foregoing Example were harvested and incubated with anti-Claudin18.2 mAbs at 4° C. for 40 min, followed by fluorophore (iFluor 647)-labeled goat […] IgG (H+L) secondary antibodies at 4° C. for 0.5 hour. The samples were then analyzed by flow cytometry.

human Claudin18.2 [4] = target: T1, human Claudin18.2; experiment: FACS, Claudin18.2-HEK293 cells; remark: listed apart in the source
Procedure: as §1
After initial screening of cell binding with transfected supernatants, the binding pattern of chimeric and up to 3 humanized antibodies on Claudin18.2 expressed on HEK293 cells were plotted with antibody in 3× serial dilutions, starting concentration of 45 μg/ml, following the protocol described in Example 3.

human Claudin18.2 [5] = target: T1, human Claudin18.2; experiment: FACS, Claudin18.2-HEK293 cells; remark: listed apart in the source
Procedure: as §1

B3: chimeric 262C7C10 (antibody, human IgG1, kappa, V domains shown)
VH: QAYLQQSGAELVRSGASVKMSCKASGYTFTNYNIHWVKQTPGQGLEWIGYIYPGNGGNYYNQKFKGKATLTADTSSITAYMQISSLTSEDSAVYFCARDYYGNSFAYWGQGTLVTVSA
VL: DIVMTQSPSSLTVTAGEKVTMNCKSSQSLLNSGNQKNYLTWYQQKPGQPPKLLIYWASTRESGVPDRFTGSGSGTDFTLTISSVQAEDLAIYYCQNDYYYPLTFGAGTKLELKR
notes: chimeric, human IgG1/kappa constant regions
- CDC % Relative activity (human Claudin18.2 [1]): 666%
- CDC EC50 (human Claudin18.2 [1]): 0.345 µg/mL
- ADCC % Relative activity (human Claudin18.2 [2]): 105%
- ADCC EC50 (human Claudin18.2 [2]): 0.0237 µg/mL
- EC50 (human Claudin18.2 [5]): 1.17 nM

B5: chimeric 265E6G2 (antibody, human IgG1, kappa, V domains shown)
VH: B3 VH with N31S, I34M, N58T, Y59N, I77S
VL: B3 VL with I2L, N22S, S83N, V84I, I91V, Y99S, T103P, K113R
notes: as for B3
- CDC % Relative activity (human Claudin18.2 [1]): 487%
- CDC EC50 (human Claudin18.2 [1]): 0.472 µg/mL
- ADCC % Relative activity (human Claudin18.2 [2]): 77.8%
- ADCC EC50 (human Claudin18.2 [2]): 0.0321 µg/mL
- EC50 (human Claudin18.2 [5]): 1.05 nM

B6: chimeric 253E4F7 (antibody, human IgG1, kappa, V domains shown)
VH: EIQLQQSGPELMKPGASVKMSCKASGYSFTSYYIHWVKQSHGKSLEWIGYIDPFNGGTRYNQKFEGKATLTVDKSSTTAYMHLSSLTSEDSTVYYCASLRFLAYWGQGTLVTVSA
VL: B3 VL with N22T, L52V, Y55S, W56R, E61Q, I91V, Y99S
notes: as for B3
- CDC % Relative activity (human Claudin18.2 [1]): 1320%
- CDC EC50 (human Claudin18.2 [1]): 0.205 µg/mL
- ADCC % Relative activity (human Claudin18.2 [2]): 138%
- ADCC EC50 (human Claudin18.2 [2]): 0.0225 µg/mL
- EC50 (human Claudin18.2 [5]): 0.561 nM

B9: chimeric 185F2G12 (antibody, human IgG1, kappa, V domains shown)
VH: QAYLQQSGAELVRSGASVKMSCKASGYTFTSYNMHWVRQTPGQGLEWIGYIYPGNGGTNYSQKFKGKASLTADTSSTTAYMQISSLTSEDSAVYFCATGRGFAYWGQGTLVTVSA
VL: B3 VL with M21L, N22S, L30F, S32T, Y55F, W56R, S73F, I91V, Y98F, Y99S
notes: as for B3
- CDC % Relative activity (human Claudin18.2 [1]): 2100%
- CDC EC50 (human Claudin18.2 [1]): 0.101 µg/mL
- ADCC % Relative activity (human Claudin18.2 [2]): 399%
- ADCC EC50 (human Claudin18.2 [2]): 0.00886 µg/mL
- EC50 (human Claudin18.2 [5]): 0.634 nM

B10: chimeric 418G6A5 (antibody, human IgG1, kappa, V domains shown)
VH: DVQLVESGGGLVQPGGSRKLSCVASGFTFSSFGMHWVRQAPEKGLEWVAYISSGSSPMYYADTVKGRFTISRDNPKNTLFLQMTSLRSEDTAMYFCARIYYGNSFAYWGQGTLVTVSA
VL: B3 VL with N22S, I91V, D97A, Y99S
notes: as for B3
- EC50 (human Claudin18.2 [3]): 0.595 nM

Next, values leading:

- CDC % Relative activity (human Claudin18.2 [1]): 2810%
- CDC EC50 (human Claudin18.2 [1]): 0.0756 µg/mL
- ADCC % Relative activity (human Claudin18.2 [2]): 677%
- ADCC EC50 (human Claudin18.2 [2]): 0.0039 µg/mL
- EC50 (human Claudin18.2 [3]): 0.778 nM
- EC50 (human Claudin18.2 [4]): 0.843 µg/mL
- Span (human Claudin18.2 [4]): 79100
B1: chimeric 410H6H3 (antibody, human IgG1, kappa, V domains shown)
VH: B10 VH with Q3L, V23A, F32S, S56N, P57T, M58I, V64L, F95Y, A106V
VL: B3 VL with T20I, N22S, L52M, T69R, I91V, D97N, A106T, E111A
notes: chimeric, human IgG1/kappa constant regions; also called 410H6H3-Chimeric

- CDC % Relative activity (human Claudin18.2 [1]): 1300%
- CDC EC50 (human Claudin18.2 [1]): 0.207 µg/mL
- ADCC % Relative activity (human Claudin18.2 [2]): 114%
- ADCC EC50 (human Claudin18.2 [2]): 0.0214 µg/mL
- EC50 (human Claudin18.2 [5]): 0.554 nM
- EC50 (human Claudin18.2 [4]): 0.17 µg/mL
- Span (human Claudin18.2 [4]): 11800
B2: chimeric 207F8G5 (antibody, human IgG1, kappa, V domains shown)
VH: QAYLQQSGAELVRSGASVKMSCKASGFTFTSYNIHWVKQTPGQGLEWIGYISPGNGGSNYNLKFKDKATLTSATSSSTAYMQISSLTSEDSAVYFCATGRGFAYWGQGTLVTVSA
VL: B3 VL with A15P, N22S, L30F, T40I, W56R, E61D, S83N, Y99S
notes: chimeric, human IgG1/kappa constant regions; also called 207F8G5-Chimeric

- EC50 (human Claudin18.2 [3]): 0.533 nM
B4: chimeric 407D8G1 (antibody, human IgG1, kappa, V domains shown)
VH: DVQLVESGGGLVQPGGSRKLSCAASGFTFSGFGMHWIRQTPEKGLEWVAYISSGSRPIYYADTVQGRFTISRDNPKNTLFLQMTSLRSEDTAMYFCARFYYGNSFDHWGQGTLVTVSS
VL: B3 VL with S10F, N22S, I91L, D97A, Y99S, Y100F
notes: as for B3

- CDC % Relative activity (human Claudin18.2 [1]): 1170%
- CDC EC50 (human Claudin18.2 [1]): 0.231 µg/mL
- ADCC % Relative activity (human Claudin18.2 [2]): 169%
- ADCC EC50 (human Claudin18.2 [2]): 0.0214 µg/mL
- EC50 (human Claudin18.2 [5]): 0.596 nM
- EC50 (human Claudin18.2 [4]): 0.0923 µg/mL
- Span (human Claudin18.2 [4]): 14800
B7: chimeric 237D2A4 (antibody, human IgG1, kappa, V domains shown)
VH: QVQLKESGPGLVAPSQSLSITCTVSGFSLTSYGVSWVRQPPGKGLEWLGVIWGDGSTNYHSTLISRLRISKDKSKSQVFLKLNSLQTDDTATYYCAKAGRGNALDYWGQGTSVTVSS
VL: B3 VL with N22S, I91V, Y99S, Y100F
notes: chimeric, human IgG1/kappa constant regions; also called 237D2A4-Chimeric

- CDC % Relative activity (human Claudin18.2 [1]): 2000%
- CDC EC50 (human Claudin18.2 [1]): 0.106 µg/mL
- ADCC % Relative activity (human Claudin18.2 [2]): 332%
- ADCC EC50 (human Claudin18.2 [2]): 0.00794 µg/mL
- EC50 (human Claudin18.2 [3]): 1.23 nM
B8: chimeric 419B5G9 (antibody, human IgG1, kappa, V domains shown)
VH: DVQLVESGGGLVQPGGSRKLSCAASGFTFSTFGMHWVRQAPEKGLEWVAYISGGSTTIFYADTVKGRFTISRDNPKNTLFLQMTSVRSEDTAMYYCARFYYGNSFAYWGPGTLVTVST
VL: B3 VL with N22S, L52M, I91V, D97A, Y99S
notes: as for B3
